# Entries after “also recorded” stand apart in the source; their conditions may differ.
# Columns and labels:
# [1] = system: A549 cells; test: ADCP with RAW264.7 mouse macrophage effector cells; format: cell-based, human
# Method: For antibody-dependent cellular phagocytosis (ADCP), the cell membranes of target cells were labeled with green fluorescent membrane dye preceding opsonization with different concentrations of antibody at room temperature for 30 minutes. RAW264.7 mouse macrophage (effector) cells were then added at a 1:1 ratio with the target cells and co-cultured at 37° C. and 5% CO2 for 2 hours. After incubation, the cell mixture was dissociated with 2 mM ethylenediaminetetraacetic acid (EDTA, pH 7.4). The cell suspension was then washed several times in an isotonic salt solution and probed with a commercially available anti-CD11b antibody, conjugated with Allophycocyanin (APC). After a 30-minute incubation at 4° C. with this antibody, the cell suspension was washed again before being analyzed by flow cytometry.
# [2] = system: A549 cells; test: Flow screen (in vitro) surface binding; set-up: species or system human; conditions: flow cytometry; comparisons are to AB-008873
# Method: Surface binding of the antibodies to in vitro grown cell lines was assessed by flow cytometry. Tumor cells were detached from their culture plate using Versene and counted. Cells were staining in BSA-containing buffer with primary antibody for 30 minutes at 4° C. with shaking. Following, cells were washed and stained with secondary PE-labeled antibody for 30 minutes at 4° C. with shaking. Before analysis on an Intellicyt iQue3 scanner, cells were counterstained with DAPI. MedFI values from live, single cells was expressed as fold over isotype control.
# [3] = system: A549 cells; test: ADCC (KILR target cells, NK92 CD16 chimera effector cells); format: cell-based, human
# Method: To detect Antibody-dependent cellular cytotoxicity (ADCC), KILR™-transfected target cells were opsonized with different concentrations of the antibody at room temperature for 20 minutes. Following, NK92 cells carrying a mouse extracellular-human intracellular CD16 chimera were added at a 5:1 ratio of effector to target cells. After a 4 h co-culture at 37° C. and 5% CO2, pre-mixed KILR™ detection reagent was added to each well at equal volume and allowed to incubate for 30 min at room temperature in the dark before reading luminescence on a pate reader. Cytotoxicity was calculated after background (spontaneous release) subtraction and expressed as percent of a maximum lysis control.
# [4] = system: PC3 tumors; test: In vivo PC3 model in NPG mice, ZLA-conjugated EphA2 antibodies; set-up: species or system mouse; conditions: ZLA conjugates in both IgG1 and IgG4 formats; 3 and 6 mg/kg; ~150 mm^3 and ~400 mm^3 PC3 tumors
# Method: This experiment assessed the activity of ZLA-Conjugated EphA2 antibodies AB-010671-ZLA and AB-010699-ZLA in vivo. 2×10^6 PC3 cells were inoculated in 0.2 mL of 1:1 DPBS with Matrigel subcutaneously into each of the male NPG mice. Tumors were allowed to establish and then randomized at an average size of 150 mm^3 with 10 mice per treatment cohort. Treatment started at the day of randomization (Day 0) with weekly intravenous injections of the conjugates at the indicated doses. Body weight as well as tumor sizes were monitored twice weekly. Study was ended at day 35 after 5 doses. At endpoint, mice were euthanized, and tumors excised and weighted.
# The assay was repeated with AB-010699 and AB-010671 in both IgG1 and IgG4 formats at 1, 3, and 6 mg/kg, AB-010016, and vehicle and isotype controls in mice carrying PC3 tumor cells measuring ˜150 mm^3 or ˜400 mm^3. […] FIG. 60B and FIG. 61B show the body weight of the mice over the course of the studies.
# [5] = system: SKOV3, MDAMB231, and PC3 tumor cells
# Method: This experiment tested the cytotoxicity of antibody-drug conjugates (“conjugates”) each comprising an EphA2 antibody directly conjugated via a lysine to a ZymeLink™ Auristatin (ZLA) payload having structure (1) as disclosed above on SKOV3, MDAMB231, and PC3 tumor cells. […] The average drug to antibody ratio (DAR) for each molecule ranges from 2.9 and 3.6 as determined by Mass Spectrometry. […] 2,500 cells were added to each well of a 96 well plate and incubated with different concentrations of directly conjugated primary antibody for 15 min at room temperature. Cells were then incubated for 72 h at 37° C. and 5% CO2. At the end of the incubation period, 100 μl CellTiter-Glo® was added to each well and allowed to incubate for 5-10 min at room temperature before reading luminescence in a BMG ClarioSTAR plate reader. Data were then normalized to a maximum lysis control and plotted using graph pad prism software.
EC50 ([3]; A549 tumor cells),Molecule,ADCP activity on A549 cells (in words) [1],binding to A549 cells (in words) [2],ADCC activity on A549 cells (in words) ([3]; comparisons are to AB-008873 or parent),"anti-tumor activity, repeat study [4]","ADCC - dAct rel. parent, Trial 1 ([3]; A549 tumor cells, Trial 1, relative to parent antibody)","ADCC - dAct rel. parent, Trial 2 ([3]; A549 tumor cells, Trial 2, relative to parent antibody)",cytotoxic activity of ZLA conjugates (in words) [5]
,"AB-009807: sibling of AB-008873; VH SEQ ID NO: 70, VL SEQ ID NO: 81 (antibody, V domains shown) VH: QVQLQQWGAGLLKPSETLSLTCAVYGGSFNDYYWSWIRQPPGKGLEWIGEVNHSGSTSYNPSLKSRVTISVDTSKNQFSLKLSSVTAADTAVYYCAKPFRPHCTNGVCYSGDAFDIWGQGTMVTVSS VL: SYVLTQPPSVSVAPGQTARITCGGNNIGSKNVHWYQQKPGQAPALVVYDDSDRPSGIPEQFSGSNSGNTATLTISRVEAGDEADYYCQVWDSSSDHLVFGGGTKLTVL",less than that of AB-008873; also recorded: some ADCP activity,less than that of AB-008873; also recorded: little binding and ADCC activity,less than that of AB-008873; also recorded: little binding and ADCC activity,,,,
~6 pM,"AB-010671: VH SEQ ID NO: 624, VL SEQ ID NO: 689; H107TI; L29SY; L92SH relative to AB-010357 (antibody, V domains shown) VH: QVQLQQWGAGLLKPSETLSLTCAVYGGSFSDYYWSWIRQPPGKGLEWIGEINHRGSINYNNYNPSLKSRVTISVDTSKNQFSLKLSSVTAADTAVYYCAKPLRPHCINGVCYSGDAFDIWGQGTMVTVAS VL: SYVLTQPPSVSVAPGQTARITCGGNNIGYKNVHWYQQKPGQAPVLVVYDDSDRPSGIPEQFSGSNSGNTATLTISRVEAGDEADYYCQVWDHSSDHVVFGGGTKLTVL",,,,anti-tumor activity,157.1%,106.7%,higher potency but similar maximum cytotoxicity compared to AB-010361-ZLA and AB-010361-IgG4-ZLA

# From patent US20250276077A1, “EPHA2 ANTIBODIES” (Immunome, Inc., priority 2022, published 2025)
